According to US20220144940A1 (VIELA BIO, published 2022):
Residue numbers refer to the chain shown, from its start. Where “and” joins values, the source holds several entries; their conditions need not be identical. Identical values can stand only once.

B1: ILT70083.3 (antibody, V domains shown)
VH: EVQLLESGGGLVQPGGSLRLSCAASGFTFSSYAMSWVRQAPGKGLEWVSAISGSGGSTYYADSVKGWFTISRDNSKNTLYLQMNSLRAEDTAVYYCARRTYYYDSDGHSDVFDIWGRGTLVTVSS
VL: QSVVTQPPSVSAAPGQKVTISCSGSASNIGSNFVSWYQQLPGTAPKLLIYDNDKRDLGIPDRFSGSKSGTSATLGITGLQTGDEADYYCGTWDTSLTVGVFGGGTKLTVL
notes: Engineered (germlined) IgG1 variant of ILT70083
B2: ILT70083.4 (antibody, V domains shown)
VH: B1 VH
VL: B1 VL with V4L
notes: as for B1
B3: ILT70083.6 (antibody, V domains shown)
VH: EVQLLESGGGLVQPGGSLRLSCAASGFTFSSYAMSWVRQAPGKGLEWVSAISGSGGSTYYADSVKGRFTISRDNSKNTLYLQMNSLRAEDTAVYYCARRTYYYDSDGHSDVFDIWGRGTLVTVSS
VL: B1 VL with G65A, K67I, G69S
notes: as for B1
B4: ILT70083.7 (antibody, V domains shown)
VH: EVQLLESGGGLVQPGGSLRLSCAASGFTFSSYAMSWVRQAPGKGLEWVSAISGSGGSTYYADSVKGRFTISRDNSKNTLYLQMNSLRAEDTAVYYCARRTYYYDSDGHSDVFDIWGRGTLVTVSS
VL: B1 VL with V4L, G65A, K67I, G69S
notes: as for B1
B5: ILT70083.9 (antibody, V domains shown)
VH: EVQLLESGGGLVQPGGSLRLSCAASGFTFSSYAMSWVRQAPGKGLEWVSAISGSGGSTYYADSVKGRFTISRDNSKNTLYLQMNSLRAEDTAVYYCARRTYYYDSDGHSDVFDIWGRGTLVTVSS
VL: B1 VL with V4L
notes: as for B1
B6: ILT70083.2 (antibody, V domains shown)
VH: B1 VH
VL: B1 VL with V4L, G65A, K67I, G69S
notes: as for B1
B7: ILT70083.5 (antibody, V domains shown)
VH: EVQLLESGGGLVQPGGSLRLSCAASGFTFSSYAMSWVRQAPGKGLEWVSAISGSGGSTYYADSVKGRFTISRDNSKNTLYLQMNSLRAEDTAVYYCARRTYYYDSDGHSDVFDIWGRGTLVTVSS
VL: B1 VL with T43R, G65A, K67I, G69S, T73A, G75A, G82E
notes: as for B1
B8: ILT70083.8 (antibody, V domains shown)
VH: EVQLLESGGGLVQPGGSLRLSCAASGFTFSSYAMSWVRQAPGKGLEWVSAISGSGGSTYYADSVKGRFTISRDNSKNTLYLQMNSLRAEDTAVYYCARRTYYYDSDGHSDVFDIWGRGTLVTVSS
VL: B1 VL
notes: as for B1
B9: ILT70142 (antibody, V domains shown)
VH: QVQLVQSGAEVKKPGASVKVSCKASGYTFTSYGISWVRQAPGQGLEWMGWISAYNGNTNYAQKLQGRVTMTRDTSISTAYMELSRLRSDDTAVYYCARNGLWGWDSDAFDIWGQGTTVTVSS
VL: QSVLTQPPSVSAAPGQKVTISCSGSSSNIGNNYVSWYQQLPGTAPKLLIYDNNKRPSGIPDRFSGSKSGTSATLGITGLQTGDEADYYCGTWDSSLSAGVFGTGTQLTVL
B10: ILT70052 (antibody, V domains shown)
VH: EVQLVESGGGLVKPGGSLRLSCEASGFTFTDYYMNWIRQAPGKGLEWISYISPGGTTVYYADSVKGRFTISRDNAKNSLYLQMNSLRVEDTAVYYCARDISGYGDWFDPWGKGTLVTVSS
VL: QSVVTQPPSASGTPGQRVTISCSGSSSNIGSNTVNWYQLLPATAPRILIYNNNQRPSGVPDRFAGSKSGTSASLAISGLQSEDEADYYCGAWDDSLNSPVFGGGTKLTVL
B11: ILT70100 (antibody, V domains shown)
VH: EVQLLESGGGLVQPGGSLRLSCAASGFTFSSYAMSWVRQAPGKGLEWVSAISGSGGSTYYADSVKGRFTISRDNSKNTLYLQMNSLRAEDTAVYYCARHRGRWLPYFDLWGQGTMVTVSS
VL: DIQLTQSPSSLSASVGERVTITCQASQDIRSYLNWYQQKPGKAPKLLIYDVSNLETGVPSRFSGSGSGTEYTFSISSLQPEDFATYYCQQYDKAPLTFGGGTKVEIK
B12: ILT70144 (antibody, V domains shown)
VH: B9 VH
VL: B9 VL
B13: ILT70080.1 (antibody, V domains shown)
VH: QVQLVQSGAEVKKPGSSVKVSCKASGDSFRNYAVSWVRQAPGQGLEWMGAMMPSFGTREHSQQFQGRVTLTADESTSTAYMELSSLRSEDTAVYYCAGSRDYNAYHFWTGPPDFWGRGTLVTVSS
VL: SYVLTQPPSVSVAPGKTARITCGGDSVGSTSVHWYQQKPGQAPVMVMFYNSDRPSGIPERFSGSISGNTATLTISRVEAGDEADYYCQVWDTSSDHPEFGGGTKLTVL
notes: Engineered (germlined) variant of ILT70080, tested as IgG1
B14: ILT70080.2 (antibody, V domains shown)
VH: B13 VH with T71S
VL: B13 VL
notes: as for B13
B15: ILT70080.3 (antibody, V domains shown)
VH: B13 VH with K13A, S16T, T71S
VL: B13 VL
notes: as for B13
B16: ILT70080.4 (antibody, V domains shown)
VH: B13 VH with K13A, S16T, T71S
VL: B13 VL with V3E, R19K, T21S
notes: as for B13
B17: ILT70080.5 (antibody, V domains shown)
VH: B13 VH
VL: B13 VL with I65N
notes: as for B13
B18: ILT70080.7 (antibody, V domains shown)
VH: B13 VH
VL: B13 VL with M45L, I65N
notes: as for B13
B19: ILT70080.6 (antibody, V domains shown)
VH: B13 VH
VL: B13 VL with M45L, M47I, F48Y, I65N
notes: as for B13
B20: afucosylated ILT70083 (antibody, V domains shown)
VH: B1 VH
VL: B1 VL with T43R, G65A, K67I, G69S, T73A, G75A, G82E
modifications: afucosylated: lacks the α-1,6 fucose moiety on the N-glycan at Asn-297 of the heavy chain
B21: ILT70083.1 (antibody, V domains shown)
VH: B1 VH
VL: B1 VL with G65A, K67I, G69S

Target: T1, cynomolgus ILT7 (cynomolgus, UniProt P59901 24-499 (human entry))
T1 construct: also called cyno ILT7; cynomolgus monkey ILT7
T1 sequence (P59901 other isoform, or with tags, fused parts or gaps limits assumed): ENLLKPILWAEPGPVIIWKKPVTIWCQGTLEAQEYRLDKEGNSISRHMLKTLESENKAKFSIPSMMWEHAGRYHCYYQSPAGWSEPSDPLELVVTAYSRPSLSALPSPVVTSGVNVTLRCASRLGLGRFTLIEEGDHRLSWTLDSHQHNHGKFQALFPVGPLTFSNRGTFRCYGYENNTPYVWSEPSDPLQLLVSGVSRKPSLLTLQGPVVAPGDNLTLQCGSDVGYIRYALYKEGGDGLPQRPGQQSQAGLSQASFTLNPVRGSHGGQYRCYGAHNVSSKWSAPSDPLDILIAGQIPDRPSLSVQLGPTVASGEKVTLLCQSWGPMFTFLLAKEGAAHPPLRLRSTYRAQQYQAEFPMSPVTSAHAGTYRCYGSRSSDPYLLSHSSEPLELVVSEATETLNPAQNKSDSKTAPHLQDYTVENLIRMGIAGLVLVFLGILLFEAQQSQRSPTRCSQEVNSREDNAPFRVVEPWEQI
Test: flow cytometry on cynomolgus ILT7-expressing cells, bottom panel, table 'Ec50 (pM)'
Protocol: (§1) Binding of anti-ILT7 variants and isotype controls on human and cynomolgus ILT7 was assessed by flow cytometry analysis using CT-550 and cynoILT7 CT-125 cells respectively. CT-125 cells were used as control. Cells were resuspended in Blocking Buffer (PBS supplemented with 10% FBS) at a concentration of 5 million cells per mL and transferred into a round-bottom 96-well plates (BD Falcon™ Clear Microtest Plate, BD Biosciences) at 100 μL per well. Anti-ILT7 variants and control antibodies were added onto the cells for 30 min at 4° C. on a plate shaker. Cells were washed three times with PBS and resuspended in Blocking Buffer (100 μL/well). Human IgG binding on cell surface was detected using a secondary anti-human IgG antibody conjugated to DyLight 649 (1 in 1000 dilution). Cells were incubated in the dark for 30 min at 4° C. on a plate shaker. Cells were washed three times with PBS and surface fluorescence was acquired using LSRII Flow Cytometry System and FACSDiva Software (both from BD Biosciences).

| EC50 [nM] | Binder |
| --- | --- |
| 0.777 | B1 |
| 0.62 | B2 |
| 1.6 | B3 |
| 9.47 | B4 |
| 0.957 | B5 |
| 15 | B6 |
| 2.28 | B7 |
| 0.711 | B8 |

Target: T2, HA-tagged human ILT7 on CT-550 cells (human, UniProt P59901 24-499)
T2 construct: whole, on cells; CT-550 cells: CT-125 cells (2B4 murine T-cell hybridoma with mouse FcεRIγ and NFAT-GFP reporter) transduced with HA-tagged human ILT7; also called human ILT7-expressing cells; not shown: HA tag
T2 sequence (P59901 24-499): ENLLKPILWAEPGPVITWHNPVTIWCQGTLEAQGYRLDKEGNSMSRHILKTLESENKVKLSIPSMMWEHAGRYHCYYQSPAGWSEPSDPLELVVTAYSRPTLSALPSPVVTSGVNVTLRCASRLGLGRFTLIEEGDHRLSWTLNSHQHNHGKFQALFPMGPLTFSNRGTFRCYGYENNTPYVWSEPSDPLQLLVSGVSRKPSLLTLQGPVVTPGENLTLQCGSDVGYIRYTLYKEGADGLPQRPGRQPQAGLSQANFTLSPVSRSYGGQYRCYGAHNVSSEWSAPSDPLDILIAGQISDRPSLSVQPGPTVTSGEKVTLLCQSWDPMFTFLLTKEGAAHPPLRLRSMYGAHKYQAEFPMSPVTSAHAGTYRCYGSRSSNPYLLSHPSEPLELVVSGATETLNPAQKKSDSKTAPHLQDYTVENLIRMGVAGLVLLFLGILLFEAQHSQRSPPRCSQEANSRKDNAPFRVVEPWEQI
Test: flow cytometry on human ILT7-expressing cells, top panel, table 'Ec50 (pM)'

| EC50 [nM] | Binder |
| --- | --- |
| 0.596 | B1 |
| 0.353 | B2 |
| 0.516 | B3 |
| 0.905 | B4 |
| 0.54 | B5 |
| 0.863 | B6 |
| 0.5 | B7 |
| 0.437 | B8 |

Target: T2, HA-tagged human ILT7 on CT-550 cells
Test: flow cytometry on CT-550 cells expressing human ILT7, anti-human IgG DyLight 649 detection; table 'Mean Ec50 (nM)', n = 2
Protocol: as §1
In order to determine the binding EC50 of ILT70019, ILT70028, ILT70052, ILT70076, ILT70080, ILT70083, ILT70089, ILT70100, ILT70137, ILT70142 and ILT70144 on cells expressing human ILT7, the candidates were screened for binding on CT-550 cells by flow cytometry. ILT70080 (EC₅₀=0.28 nM), ILT70083 (EC₅₀=0.37 nM), ILT70137 (EC₅₀=0.41 nM), ILT70144, ILT70142, ILT70052, and ILT70100 bound to human ILT7-expressing cells. […] The anti-ILT7 antibodies 7C7 (7C7 is described above in Example 1) and SBI33 (SBI33 refers to the anti-ILT7 antibody ILT7#33 provided in U.S. Published Application No. 2009/0280128) were used as positive controls.

| EC50 [nM] | Binder |
| --- | --- |
| 2.03 | B9 |
| 23.1 | B10 |
| 180 | B11 |
| 1.7 | B12 |

Target: T2, HA-tagged human ILT7 on CT-550 cells
Test: flow cytometry on CT-550 cells (human ILT7), top panel, table 'Ec50 (pM)'
Protocol: as §1

| EC50 [nM] | Binder |
| --- | --- |
| 0.201 | B13 |
| 0.225 | B14 |
| 0.198 | B15 |
| 0.337 | B16 |
| 0.503 | B17 |
| 0.229 | B18 |
| 0.287 | B19 |

Target: T2, HA-tagged human ILT7 on CT-550 cells
Test: flow cytometry (MFI) on human ILT7-expressing cells, left panel 'Human ILT7', table 'Ec50 (pM) Mean ± SD n=3'

| EC50 [nM] | Binder |
| --- | --- |
| 0.211 | B20 |
| 0.155 | B19 |

Target: T1, cynomolgus ILT7
Test: flow cytometry (MFI) on cynomolgus ILT7-expressing cells, right panel 'Cynomolgus ILT7', table 'Ec50 (pM) Mean ± SD n=3'

| EC50 [nM] | Binder |
| --- | --- |
| 0.863 | B20 |
| 0.37 | B19 |

Target: T2, HA-tagged human ILT7 on CT-550 cells
Test: cell-based or functional assay

| ADCC EC50 | Binder |
| --- | --- |
| < 0.0141 nM and 0.008 nM and 0.01 nM | B13 |
| < 0.0141 nM | B14 |
| < 0.0141 nM and 0.011 nM | B15 |
| < 0.0141 nM and 0.0119 nM | B16 |
| < 0.0141 nM and 0.0086 nM | B17 |
| < 0.0141 nM and 0.0078 nM | B18 |
| > 0.089 nM | B1 |
| > 0.089 nM | B2 |
| > 0.089 nM | B3 |
| > 0.089 nM | B4 |
| > 0.089 nM | B5 |
| > 0.089 nM | B21 |
| > 0.089 nM | B6 |
| > 0.089 nM | B7 |
| > 0.089 nM | B8 |
| 0.0105 nM | B20 |
| < 0.0141 nM and 0.0069 nM | B19 |

Target: T1, cynomolgus ILT7
Test: cell-based or functional assay

| ADCC EC50 [nM] | Binder |
| --- | --- |
| 0.058 | B9 |
| 0.073 | B10 |
| 0.188 | B11 |
| 0.057 | B20 |

Target: T2, HA-tagged human ILT7 on CT-550 cells
Test: flow cytometry on human ILT7-expressing cells, left panel 'Human ILT7', table 'Ec50 (nM)'
Protocol: as §1

| EC50 [nM] | Binder |
| --- | --- |
| 0.38 | B20 |

Target: T1, cynomolgus ILT7
Test: flow cytometry on CynoILT7 CT-125 cells
Protocol: as §1
In order to determine the binding EC₅₀ of the variants on cells expressing cynomolgus ILT7, the antibodies were screened for binding on CynoILT7 CT-125 cells by flow cytometry. […] The graph in FIG. 3 represents the mean results from two independent experiments, and the table in FIG. 3 show the average EC₅₀.

| EC50 [nM] | Binder |
| --- | --- |
| 0.35 | B10 |
| 1.63 | B11 |
| 7.81 | B12 |

Target: T1, cynomolgus ILT7
Test: flow cytometry on CynoILT7 CT-125 cells (cynomolgus ILT7), bottom panel, table 'Ec50 (pM)'
Protocol: as §1

| EC50 [nM] | Binder |
| --- | --- |
| 0.463 | B13 |
| 0.503 | B14 |
| 0.467 | B15 |
| 0.597 | B16 |
| 0.612 | B17 |
| 0.405 | B18 |
| 0.428 | B19 |
